# Data: US10716830B2, “ERBB4 activator screening assay” (Children's Hospital Los Angeles, priority 2011, dated 2020)
# B1: Neuregulin-4 (protein, UniProt Q8WWG1 1-62, looked up)
# extracellular domain: MPTDHEEPCGPSHKSFCLNGGLCYVIPTIPSPFCRCVENYTGARCEEVFLPGSSIQTKSNLF
# modifications: ectodomain
# notes: ErbB4-specific ligand
# Legend:
# [1] = tested on: YAMC-B4 cells; assay: Cytokine (TNF plus IFN-γ)-induced apoptosis in cultured colon epithelial cells; format: cell-based, mouse; settings: NRG4 100 ng/ml, TNF 100 ng/ml plus IFN-γ 150 U/ml, 6 h, p<0.03
# Source text: (§1) Conditionally immortalized, non-transformed young adult mouse colon (YAMC) epithelial cells were provided by Dr. Robert Whitehead (Whitehead, R. H., VanEeden, P. E., Noble, M. D., Ataliotis, P., and Jat, P. S. (1993) Proc Natl Acad Sci USA 90, 587-591). These cells express low levels of endogenous ErbB4; YAMC-B4 cells expressing a human ErbB4 construct were generated as previously described (Frey, M. R., Edelblum, K. L., Mullane, M. T., Liang, D., and Polk, D. B. (2009) Gastroenterology 136, 217-226). […]
# Cultured mouse colonic epithelial cells expressing ErbB4 (YAMC-B4) cells were exposed to TNF (100 ng/ml) plus interferon (IFN)-γ (150 units/ml), with or without NRG4 (100 ng/ml). After 6 h, the cells were fixed and apoptosis was assessed by immunofluorescence analysis for cleaved caspase-3. When the YAMC-B4 cells were given 100 ng/ml NRG4, cells were protected from apoptosis induced by the 6 h exposure to the cytokine cocktail containing TNF (100 ng/ml) and IFN-γ (150 U/ml), as measured by immunofluorescence analysis for cleaved caspase-3 (FIG. 1B; 2.7-fold decrease with cytokines plus NRG4 vs. cytokines alone, p<0.03).
# [2] = tested on: EGFR, ErbB2, ErbB3, and ErbB4; assay: ErbB receptor phosphorylation by western blot with phospho-specific antibodies; format: cell-based, mouse; settings: YAMC-B4 cells (human ErbB4 construct); 10 min; HRG-1β 100 ng/ml, NRG4, EGF 10 ng/ml
# Source text: as §1
# (§2) Cell lysates were extracted in modified RIPA buffer as previously described (Frey, M. R., Dise, R. S., Edelblum, K. L., and Polk, D. B. (2006) Embo J 25, 5683-5692), cleared by centrifugation, and boiled in Laemmli sample buffer. Samples were separated on SDS-polyacrylamide gels (6-10% as appropriate), blotted on PVDF membranes, and subjected to quantitative immunoblot using the Li-Cor Odyssey infrared detection system. Equal loading was monitored by immunoblots for actin and at least one additional protein.
# Phosphorylation of EGFR, ErbB2, ErbB3, and ErbB4 was determined by western blot analysis of cell lysates using phospho-specific antibodies. […]
# [3] = tested on: colon epithelial cells; assay: Cytokine-induced colon epithelial apoptosis in vivo; parameters: species or system mouse; settings: C57Bl/6 mice, NRG4 100 μg/kg i.p., TNF 250 μg/kg plus IFN-γ 250 U/g, 24 h
# Description: All animal use was approved and monitored by the Children's Hospital Los Angeles Institutional Animal Care and Use Committee. […] Cytokines, growth factors, and inhibitors were given by intraperitoneal injection. 24 h after injections, mice were sacrificed and colons collected either for fixation and embedding or for epithelial lysates. For the latter, colons were incubated in Cell Recovery Solution (BD Biosciences, San Jose, Calif.) for 1 h at 4° C.; crypts were released by vigorous shaking and collected by centrifugation, similar to as previously described (Whitehead, R. H., and Robinson, P. S. (2009) American journal of physiology. Gastrointestinal and liver physiology 296, G455-460). Collected crypts were lysed and processed similar to cultured cells as below. […]
# For apoptosis analysis in vivo, mice were injected i.p. with PBS/vehicle, TNF (250 μg/kg) plus IFN-γ (250 units/g), NRG4 (100 μg/kg), or NRG4 plus TNF and IFN-γ. […] Apoptosis was detected by in situ oligo ligation (ISOL; EMD Millipore, Billerica, Mass.) staining for DNA fragmentation on sections of paraffin-embedded tissue, and by cleaved caspase-3 western blot on homogenates.
# 24 hours after injections, colons were harvested. Apoptosis assessed by Western blot analysis for cleaved caspase-3 on isolated epithelial cells determined that NRG4 blocked cytokine-induced apoptosis in vivo (FIG. 3A, B; 3.6-fold decrease, p=0.012).
# [4] = tested on: YAMC-B4 cells; assay: EdU proliferation assay; format: cell-based, mouse; settings: 24 h stimulation
# Description: (§3) Proliferative index in fixed colon specimens was assessed by immunohistochemical stain for Ki-67. In vitro, cells were exposed to vehicle or growth factors for 24 h, then labeled with 5-ethynyl-2-deoxyuridine (EdU) for 2 h and fixed. Nuclei were marked with DAPI, and incorporated EdU was detected using a Click-iT EdU kit (Invitrogen).
# (§4) Most ErbB ligands stimulate multiple cellular processes, including proliferation and migration, in colon epithelial cells (Frey, M. R., Golovin, A., and Polk, D. B. (2004) J Biol Chem 279, 44513-44521). To determine if NRG4 is similarly broad in its cellular effects, we subjected YAMC-B4 cells to proliferation assays in the presence of NRG4. […] In vivo, the number of Ki67-positive nuclei per crypt in PBS vs. NRG4-injected mice was not altered 24 h post-injection (FIG. 4B).
# [5] = tested on: colon crypts; assay: Ki-67 proliferative index in colon in vivo; parameters: species or system mouse; settings: 24 h post-injection
# Description: as §3, §4
# [6] = tested on: YAMC-B4 cells; assay: Cell migration/restitution (modified scratch) assay; format: cell-based, mouse; settings: 8 h
# Description: Cells grown on fibronectin-coated plates were subjected to multiple circular wounds with a rotating silicone probe as previously described (Corredor, J., Yan, F., Shen, C. C., Tong, W., John, S. K., Wilson, G., Whitehead, R., and Polk, D. B. (2003) American journal of physiology. Cell physiology 284, C953-961). Cultures were photographed immediately and 8 h after wounding; % closure was determined by measuring wounds in Image.
# To test the potential effect of NRG4-ErbB4 signaling on cell motility, we used a modified scratch assay for restitution/migration (Corredor, J., Yan, F., Shen, C. C., Tong, W., John, S. K., Wilson, G., Whitehead, R., and Polk, D. B. (2003) American journal of physiology. Cell physiology 284, C953-961). Over an 8 h period, NRG4 had no effect on the rate at which YAMC-B4 cells moved into the denuded area of a culture plate (FIG. 4C), while in contrast EGF caused a 54% increase in migration over control.
# [7] = Dextran sodium sulfate-induced acute murine colitis; format: in vivo, mouse; settings: C57/BL6 mice, NRG4 100 μg/kg injected daily vs PBS
# Description: 6-8 week-old male C57/BL6 mice were given 3% DSS in drinking water for 7 days and injected daily with either PBS or NRG4 (100 μg/kg). Weight-loss was monitored over the course of the experiment (FIG. 4D(i)). On day 7, mice were sacrificed; colons were excised, rolled and fixed. H&E sections were scored by a pathologist blind to the experimental conditions using a scoring system adapted from that of Dielman et al. (Dieleman, L. A., et al., Chronic experimental colitis induced by dextran sulphate sodium (DSS) is characterized by Th1 and Th2 cytokines. Clinical and experimental immunology, 1998. 114(3): p. 385-91) (FIG. 4D(ii)).
# [8] = tested on: Akt; assay: Akt phosphorylation in whole cell lysates by western blot; format: cell-based, mouse; settings: YAMC-B4 cells; NRG4 100 ng/ml, 10 min
# Source text: as §2
# (§5) To identify signaling pathways which could be involved in NRG4-stimulated cell survival, we exposed YAMC-B4 cells to NRG4 or EGF and prepared whole cell lysates for western blot analysis. […] Furthermore, COX-2 expression, which is induced by either HRG-1β or EGF after 6 h exposure, and is required for cell survival induced by ErbB4-EGFR dimers (Frey, M. R., Hilliard, V. C., Mullane, M. T., and Polk, D. B. (2010) Laboratory Investigation 90, 1415-1424), was not induced by NRG4. Thus, NRG4 promotes cell survival through pathways at least partly distinct from those activated by other ligands.
# [9] = tested on: ERK MAPK; assay: ERK MAPK phosphorylation in whole cell lysates by western blot; format: cell-based, mouse; settings: YAMC-B4 cells; NRG4 100 ng/ml, 10 min
# Source text: as §2, §5
# [10] = tested on: COX-2; assay: COX-2 expression in YAMC-B4 cells; format: cell-based, mouse; settings: 6 h exposure
# Description: as §5
# [11] = tested on: Akt; assay: Akt phosphorylation in colon epithelium of injected mice; format: in vivo, mouse; settings: mice injected with NRG4, with or without TNF plus IFN-γ; 24 h
# Description: All animal use was approved and monitored by the Children's Hospital Los Angeles Institutional Animal Care and Use Committee. […] Cytokines, growth factors, and inhibitors were given by intraperitoneal injection. 24 h after injections, mice were sacrificed and colons collected either for fixation and embedding or for epithelial lysates. For the latter, colons were incubated in Cell Recovery Solution (BD Biosciences, San Jose, Calif.) for 1 h at 4° C.; crypts were released by vigorous shaking and collected by centrifugation, similar to as previously described (Whitehead, R. H., and Robinson, P. S. (2009) American journal of physiology. Gastrointestinal and liver physiology 296, G455-460). Collected crypts were lysed and processed similar to cultured cells as below. For murine colitis, IL-10^−/− mice on C57Bl/6 background were maintained unchallenged until 32-36 weeks of age, at which point knockout mice but not wild-type animals have extensive inflammatory cytokine-driven colitis (Kuhn, R., Lohler, J., Rennick, D., Rajewsky, K., and Muller, W. (1993) Cell 75, 263-274).
# Tissues and cells were fixed with 4% paraformaldehyde (Electron Microscopy Sciences, Hatfield, Pa.). […] For immunofluorescence, slides were mounted with Vectashield medium containing DAPI (Vector Laboratories, Burlingame, Calif.). […]
# [12] = tested on: rat intestinal epithelial cells; assay: Cronobacter sakazakii-induced apoptosis in cultured intestinal epithelial cells; format: cell-based
# Source text: NRG4 inhibits CS-induced cell death.
# [13] = Experimental necrotizing enterocolitis (NEC) model
molecule,measurement,setting,value
B1,"decrease in apoptosis (cleaved caspase-3 immunofluorescence), cytokines plus NRG4 vs. cytokines alone",[1],2.7 fold
same,"phosphorylation of EGFR, ErbB2, ErbB3, and ErbB4",[2],activated only ErbB4
same,"decrease in apoptosis, ISOL staining on fixed colon sections",[3]; p<0.0001,3.1 fold
same,"decrease in cytokine-induced apoptosis, cleaved caspase-3 western blot on isolated epithelial cells",[3]; p=0.012,3.6 fold
same,"cellular uptake of EdU (proliferation) vs. control, in words",[4],not different from control
same,"number of Ki67-positive nuclei per crypt, PBS vs. NRG4-injected mice",[5],not altered
same,"rate at which cells moved into the denuded area (migration), in words",[6],no effect
same,colon shortening,[7]; 3% DSS 7 days,reduces
same,histologically detectable colonic damage,"[7]; 3% DSS 7 days, blinded H&E score",reduces
same,weight loss,[7]; 3% DSS in drinking water 7 days,reduces
same,phosphorylation of Akt,[8],resulted in phosphorylation of Akt
same,phosphorylation of ERK MAPK,[9],not ERK MAPK
same,COX-2 expression,[10],not induced
same,"Akt phosphorylation in colon epithelial cells versus controls (western blot, immunofluorescence)",[11],increased Akt phosphorylation
same,Cronobacter sakazakii induced apoptosis,[12],attenuates
same,protection of the small intestine,[13]; formula feeding/hypoxia model of necrotizing enterocolitis,protective
same,survival of rat pups,"[13]; hypoxia/hypothermia model of NEC in rat pups, given by gavage with each feed",survive longer
